The chains are these.
B1: NF-kappa-B essential modulator (Mus musculus), O88522 (parent)
chain: MNKHPWKNQLSEMVQPSGGPAEDQDMLGEESSLGKPAMLHLPSEQGTPETLQRCLEENQELRDAIRQSNQMLRERCEELLHFQVSQREEKEFLMCKFQEARKLVERLSLEKLDLRSQREQALKELEQLKKCQQQMAEDKASVKAQVTSLLGELQESQSRLEAATKDRQALEGRIRAVSEQVRQLESEREVLQQQHSVQVDQLRMQNQSVEAALRMERQAASEEKRKLAQLQAAYHQLFQDYDSHIKSSKGMQLEDLRQQLQQAEEALVAKQELIDKLKEEAEQHKIVMETVPVLKAQADIYKADFQAERHAREKLVEKKEYLQEQLEQLQREFNKLKVGCHESARIEDMRKRHVETPQPPLLPAPAHHSFHLALSNQRRSPPEEPPDFCCPKCQYQAPDMDTLQIHVMECIE

The source of these data is IntAct's records for PubMed 24469399.

Variants of B1 are the subject of one assay. To be noted: with rnf31_mouse Rnf31, Q924T7.
Chain of rnf31_mouse Rnf31, Q924T7 (Q924T7 whole entry): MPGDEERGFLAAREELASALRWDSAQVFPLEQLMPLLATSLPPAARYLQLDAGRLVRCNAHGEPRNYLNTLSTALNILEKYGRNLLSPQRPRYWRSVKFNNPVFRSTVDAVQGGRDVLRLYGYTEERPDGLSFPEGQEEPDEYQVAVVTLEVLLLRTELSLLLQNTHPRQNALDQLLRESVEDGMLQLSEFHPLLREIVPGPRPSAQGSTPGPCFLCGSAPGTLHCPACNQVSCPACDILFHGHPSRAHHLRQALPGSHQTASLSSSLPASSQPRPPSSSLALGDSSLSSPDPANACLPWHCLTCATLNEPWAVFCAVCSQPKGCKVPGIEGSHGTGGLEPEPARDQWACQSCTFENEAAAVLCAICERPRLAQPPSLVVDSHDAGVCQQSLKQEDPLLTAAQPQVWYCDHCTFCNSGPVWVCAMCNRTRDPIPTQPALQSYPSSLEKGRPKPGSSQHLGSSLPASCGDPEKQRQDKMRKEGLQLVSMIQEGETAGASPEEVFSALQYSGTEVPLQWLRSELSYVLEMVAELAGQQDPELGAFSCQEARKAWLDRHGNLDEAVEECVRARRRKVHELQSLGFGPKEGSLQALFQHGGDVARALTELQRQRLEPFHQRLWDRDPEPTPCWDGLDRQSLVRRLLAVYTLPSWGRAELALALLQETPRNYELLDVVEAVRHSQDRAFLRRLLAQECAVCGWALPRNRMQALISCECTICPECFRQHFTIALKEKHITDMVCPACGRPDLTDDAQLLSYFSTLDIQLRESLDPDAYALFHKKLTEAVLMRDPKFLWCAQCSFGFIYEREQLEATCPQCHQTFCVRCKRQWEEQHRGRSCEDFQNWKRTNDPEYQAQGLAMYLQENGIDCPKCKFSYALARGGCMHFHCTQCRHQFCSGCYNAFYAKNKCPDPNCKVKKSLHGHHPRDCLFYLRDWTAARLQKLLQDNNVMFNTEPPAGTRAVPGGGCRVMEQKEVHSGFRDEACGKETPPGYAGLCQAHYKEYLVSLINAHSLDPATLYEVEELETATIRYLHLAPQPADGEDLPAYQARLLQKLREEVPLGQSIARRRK
For MNKHPWKNQLSEMVQPSGGPAEDQDMLGEESSLGKPAMLHLPSEQGTPETLQRCLEENQELRDAIRQSNQMLRERCEELLHFQVSQREEKEFLMCKFQEARKLVERLSLEKLDLRSQREQALKELEQLKKCQQQMAEDKASVKAQVTSLLGELQESQSRLEAATKDRQALEGRIRAVSEQVRQLESEREVLQQQHSVQVDQLRMQNQSVEAALRMERQAASEEKRKLAQLQAAYHQLFQDYDSHIKSSKGMQLEDLRQQLQQAEEALVAKAELIAKLKEEAEQHKIVMETVPVLKAQADIYKADFQAERHAREKLVEKKEYLQEQLEQLQREFNKLKVGCHESARIEDMRKRHVETPQPPLLPAPAHHSFHLALSNQRRSPPEEPPDFCCPKCQYQAPDMDTLQIHVMECIE [Q271A;D275A], the “effect of a mutation on the interaction” value is listed as “disrupting interaction”.

A further assay covers variants of B1. To be noted: with rnf31_mouse Rnf31, Q924T7. This is another data set of the same source.
Regarding MNKHPWKNQLSEMVQPSGGPAEDQDMLGEESSLGKPAMLHLPSEQGTPETLQRCLEENQELRDAIRQSNQMLRERCEELLHFQVSQREEKEFLMCKFQEARKLVERLSLEKLDLRSQREQALKELEQLKKCQQQMAEDKASVKAQVTSLLGELQESQSRLEAATKDRQALEGRIRAVSEQVRQLESEREVLQQQHSVQVDQLRMQNQSVEAALRMERQAASEEKRKLAQLQAAYHQLFQDYDSHIKSSKGMQLEDLRQQLQQAEEALVAKQELIAKLKEEAEQHKIVMETVPVLKAQADIYKADFQAERHAREKLVEKKEYLQEQLEQLQREFNKLKVGCHESARIEDMRKRHVETPQPPLLPAPAHHSFHLALSNQRRSPPEEPPDFCCPKCQYQAPDMDTLQIHVMECIE [D275A], the “effect of a mutation on the interaction” value is reported as “disrupting interaction”.

The variants in another assay derive from B1. The settings on record: with rnf31_mouse Rnf31, Q924T7. The source holds these as a separate data set.
As to MNKHPWKNQLSEMVQPSGGPAEDQDMLGEESSLGKPAMLHLPSEQGTPETLQRCLEENQELRDAIRQSNQMLRERCEELLHFQVSQREEKEFLMCKFQEARKLVERLSLEKLDLRSQREQALKELEQLKKCQQQMAEDKASVKAQVTSLLGELQESQSRLEAATKDRQALEGRIRAVSEQVRQLESEREVLQQQHSVQVDQLRMQNQSVEAALRMERQAASEEKRKLAQLQAAYHQLFQDYDSHIKSSKGMQLEDLRQQLQQAEEALVAKAELIDKLKEEAEQHKIVMETVPVLKAQADIYKADFQAERHAREKLVEKKEYLQEQLEQLQREFNKLKVGCHESARIEDMRKRHVETPQPPLLPAPAHHSFHLALSNQRRSPPEEPPDFCCPKCQYQAPDMDTLQIHVMECIE [Q271A], the “effect of a mutation on the interaction” value is “disrupting interaction”.
